Assays:
Escherichia coli MDH = target: T1, Escherichia coli MDH (Escherichia coli, UniProt P61889); design: Purified MDH activity, NADH oxidation at 340 nm with varied oxaloacetate, 150 uM NADH, pH 7.4, Michaelis-Menten fit; conditions: substrate; read-out: KM (oxaloacetate)
T1 construct: C-terminal His6 tag, pET24a, expressed in E. coli BL21(DE3)
T1 sequence (P61889 1-312): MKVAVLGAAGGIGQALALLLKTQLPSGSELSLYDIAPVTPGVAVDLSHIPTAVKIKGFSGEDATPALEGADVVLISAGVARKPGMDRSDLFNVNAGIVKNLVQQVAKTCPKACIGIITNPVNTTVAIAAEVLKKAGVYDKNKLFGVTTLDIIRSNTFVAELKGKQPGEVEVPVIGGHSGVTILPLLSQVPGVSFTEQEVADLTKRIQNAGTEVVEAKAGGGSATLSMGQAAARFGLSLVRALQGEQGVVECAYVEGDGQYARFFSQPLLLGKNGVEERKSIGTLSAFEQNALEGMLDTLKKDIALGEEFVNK
Method: (§1) Determination of MDH activity was based on spectroscopic assays (30). […] Specifically, a range of oxaloacetate (Sigma) concentrations (7.5–250 µM), 150 µM NADH (Sigma), 5 nM MDH in 0.1 M sodium phosphate buffer, pH 7.4 were used. […] The catalytic parameters, kcat and KM, were calculated by fitting the data using non-linear regression to Michaelis-Menten equation, v0 = (kcat·[E]·[S])/(KM + [S]), where v0 is initial velocity, [E] is MDH concentration, [S] is […]. Original and mutated mdh genes used in the study are summarized in Supplementary Data 1. B. subtilis mdh gene was amplified by PCR from the chromosomal DNA of B. subtilis PY79. Nucleotide sequences of orthologous mdhs were collected from the KEGG database (https://www.genome.jp/), synthesized by GENEWIZ^© and cloned into i) pHT254 B. subtilis expression vector (MoBiTec Molecular Biotechnology), and ii) pET24a E. coli expression vector (Merck-Novagen) using Gibson assembly. […] All MDH proteins were tagged with Hisx6t at the C-terminal end. Mdh genes cloned into pHT254 plasmid were transformed into B. subtilis PY79. Mdh genes cloned into pET24a plasmid were transformed into E. coli Bl21(DE3) strain.

[1] = target: T2, isocitrate dehydrogenase (ICD) from Bacillus subtilis (B. subtilis) (UniProt P39126)
T2 sequence: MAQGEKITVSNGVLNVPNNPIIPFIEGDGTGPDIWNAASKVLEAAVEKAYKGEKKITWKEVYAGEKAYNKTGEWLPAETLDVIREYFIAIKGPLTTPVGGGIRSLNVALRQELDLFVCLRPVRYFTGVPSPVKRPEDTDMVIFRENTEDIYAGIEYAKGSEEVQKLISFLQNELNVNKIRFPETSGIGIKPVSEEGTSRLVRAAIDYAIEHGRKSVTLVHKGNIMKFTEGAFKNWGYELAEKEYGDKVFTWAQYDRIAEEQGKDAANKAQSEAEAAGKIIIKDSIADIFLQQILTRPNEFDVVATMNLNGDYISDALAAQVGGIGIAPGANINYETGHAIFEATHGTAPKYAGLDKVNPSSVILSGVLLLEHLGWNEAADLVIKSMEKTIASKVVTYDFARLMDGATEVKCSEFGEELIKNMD

[2] = target: T2, isocitrate dehydrogenase (ICD) from Bacillus subtilis (B. subtilis); remark: listed apart in the source
[3] = substrate: O=C(O)CC(=O)C(=O)O; test: purified protein, by the assay type; design: Purified MDH activity, NADH oxidation at 340 nm with varied oxaloacetate, 150 uM NADH, pH 7.4, Michaelis-Menten fit; conditions: pH 7.4
Method: as §1

purified protein [4] = substrate: O=C(O)CC(=O)C(=O)O; test: purified protein; type: biochemical, Bacillus subtilis; conditions: 150 uM NADH, oxaloacetate 7.5-250 uM, 5 nM MDH, 0.1 M sodium phosphate pH 7.4
purified protein [5] = substrate: O=C(O)CC(=O)C(=O)O; test: purified protein; type: biochemical, Oceanobacillus iheyensis; conditions: 150 uM NADH, oxaloacetate 7.5-250 uM, 5 nM MDH, 0.1 M sodium phosphate pH 7.4

How did the Km (Escherichia coli MDH) turn out when `O=C(O)CC(=O)C(=O)O` [oxaloacetate] was run?
The Km was 39 µM.

B1: malate dehydrogenase (MDH) from Bacillus subtilis (enzyme)
chain: MGNTRKKVSVIGAGFTGATTAFLIAQKELADVVLVDIPQLENPTKGKALDMLEASPVQGFDAKITGTSNYEDTAGSDIVVITAGIARKPGMSRDDLVSTNEKIMRSVTQEIVKYSPDSIIVVLTNPVDAMTYAVYKESGFPKERVIGQSGVLDTARFRTFVAEELNLSVKDVTGFVLGGHGDDMVPLVRYSYAGGIPLETLIPKERIDAIVERTRKGGGEIVNLLGNGSAYYAPAASLTEMVEAILKDQRRVLPTIAYLEGEYGYEGIYLGVPTIVGGNGLEQIIELELTDYERAQLNKSVESVKNVMKVLS
Which rate of 2-oxoglutarate formation by ICD within BSA/PEG LLPS droplets, MDH/ICD molar ratios 1:1, 10:1, 50:1, 100:1, 250:1 and 500:1 (~10% enhancement at 10:1; plateau at and above 250:1) [1] does the source give for B1 here?
The rate of 2-oxoglutarate formation by ICD within BSA/PEG LLPS droplets, MDH/ICD molar ratios 1:1, 10:1, 50:1, 100:1, 250:1 and 500:1 (~10% enhancement at 10:1; plateau at and above 250:1) was 180%.

What about the partitioning of 2-oxoglutarate towards the droplet phase against the continuous phase, droplets with 1:500 molar excess of MDH, after 40 min of incubation [2] of the same molecule?
The partitioning of 2-oxoglutarate towards the droplet phase against the continuous phase, droplets with 1:500 molar excess of MDH, after 40 min of incubation was 2 fold.

B2: Geobacillus kaustophilus MDH (Geobacillus kaustophilus HTA426) (protein)
chain: MAMKRKKISVIGAGFTGATTAFLLAQKELGDVVLVDIPQLENPTKGKALDMLEASPVLGFDANIIGTSDYADTADSDIVVITAGIARKPGMSRDDLVTTNQKIMKQVTKEVVKYSPNCYIIVLTNPVDAMTYTVFQESGFPKNRVIGQSGVLDTARFRTFVAEELNISVKDVTGFVLGGHGDDMVPLVRYSYAGGIPLEKLIPKDRLDAIVERTRKGGGEIVNLLGNGSAYYAPAASLVEMVEAILKDQRRILPAIAYLEGEYGYEGIYLGVPTILGGNGIEKVIELELTEEEKAALAKSVESVKNVMRMLE
notes: C-terminal His6 tag, pET24a, expressed in E. coli BL21(DE3)
B2 was tested. Which Km [3] did it give?
Its Km is 54 µM.

And the kcat [3]?
Its kcat is 59 s⁻¹.

What about the kcat/Km [3] of the same molecule?
The kcat/Km was 1.1e+06 M⁻¹ s⁻¹.

B3: B. subtilis MDH (BsMDH) (Bacillus subtilis subsp. subtilis str. 168) (protein)
chain: GNTRKKVSVIGAGFTGATTAFLIAQKELADVVLVDIPQLENPTKGKALDMLEASPVQGFDAKITGTSNYEDTAGSDIVVITAGIARKPGMSRDDLVSTNEKIMRSVTQEIVKYSPDSIIVVLTNPVDAMTYAVYKESGFPKERVIGQSGVLDTARFRTFVAEELNLSVKDVTGFVLGGHGDDMVPLVRYSYAGGIPLETLIPKERIDAIVERTRKGGGEIVNLLGNGSAYYAPAASLTEMVEAILKDQRRVLPTIAYLEGEYGYEGIYLGVPTIVGGNGLEQIIELELTDYERAQLNKSVESVKNVMKVLS
notes: full-length, C-terminal His6 tag, pET24a, expressed in E. coli BL21(DE3), Ni-NTA and SEC; 33,643 Da printed
How did the Km (purified protein [4]) turn out when B3 was run?
Its Km is 12 µM.

What about the kcat (purified protein [4]) of the same molecule?
The kcat was 120 s⁻¹.

B4: O. iheyensis MDH (OceMDH) (Oceanobacillus iheyensis HTE831) (protein)
chain: MGLKRKKISVIGSGFTGATTALMVAQKELGDVVLVDIPDMEDPTKGKALDMAEAAPVQGFDAKITGTSNYADTEGSDLVIITAGIARKPGMSRDDLVNTNANIMKSVTKEIVHYSPNTTIVVLTNPVDAMTYTVFKESGLPKERVIGQSGILDTARFRTFVAEELNLSVKDVTGFVLGGHGDDMVPLIRYSYAGGIPLEKLIPQERLDAIVQRTRTGGGEIVNLLGNGSAYYAPAASLTVMAEAILKDQRRVLPTIAYLEGEYGYQDIYLGVPTILGGEGIEEIIELDLTKEEKAQLDKSADSVKNVLNVLQ
notes: 34,592 Da printed
B4 was tested. Which Km (purified protein [5]) did it give?
Its Km is 23 µM.

What about the kcat (purified protein [5]) of the same molecule?
Its kcat is 249 s⁻¹.

— publication PMC11189929, “Non-consecutive enzyme interactions within TCA cycle supramolecular assembly regulate carbon-nitrogen metabolism” (Nature Communications, 2024)
